Reference: patent US20060281702A1, “Combinatorial selection of phosphorothioate aptamers for RNases” (priority 2005, published 2006)
“Also recorded” adds a separate entry of the source. Like-named read-outs stand apart in the source and are kept apart here.

What was measured:
HIV-RT = target: T1, HIV-RT (Human immunodeficiency virus type 1 group M subtype B, UniProt P04585); assay: EMSA binding to intact HIV-RT
T1 construct: The 66 kDa domain, p66, contains an RNase H domain in addition to the DNA polymerase domain; purchased Amersham Bioscience (Piscataway, N.J.)
Method: Electrophoresis Mobility Shift Assay (EMSA). One of the selected thioaptamers (R12-2) was used to test the specific binding to RNase H. R12-2 was labeled with fluorescein at the 5′-end by enzymatic synthesis and was incubated with increasing concentrations of HIV-RT RNase H in Tris-HCl buffer (50 mM. pH 8), MgCl2 (10 mM) and DTT (40 mM) at 37° C. for 30 minutes. The reaction mixture was loaded on an 8% native polyacrylamide gel, electrophoresed and analyzed on the Flor Chem 8800 imager (Alpha Innotech, CA). Similar experiment was performed with the E.coli RNase H, to test whether R12-2 binds to the RNase H from E.coli.
Next, the binding of R12-2 to the intact HIV-RT by EMSA methods was also determined. In FIG. 4a, the protein in the band was detected by staining the gel with Coomassie blue.

[1] = target: T2, isolated domain of RNase H HIV-RT (Human immunodeficiency virus type 1 group M subtype B, UniProt P04585); assay: NMR titration of R12-2 with isolated RNase H domain; format: binding, HIV-1; details: addition of RNase H to R12-2
T2 construct: encodes the 15 kDa RNase H domain of HIV-RT; made in house; host or cells: E. coli
Method: NMR Spectroscopy. Uniformly ^15N labeled RNase H and chemically synthesized R12-2 were used to monitor the binding of the R12-2 thioaptamer to the isolated domain of RNase H. The oligonucleotide concentrations were calculated from the absorbance value and using the molar absorption coefficients calculated using the nearest neighbor parameters. ^15N-HSQC spectra (26) of the isolated RNase H in the presence of 25 mM MgCl2 were acquired on Varian UnityPlus 750 MHz instrument equipped with pulse field gradients and using triple resonance probes. One dimensional proton NMR and 2D NOESY spectra (250 ms mixing time) of R12-2 thioaptamer in 95% H2O/5% D2O were collected at 750 MHz. The signals from the […] imino protons of R12-2, that are very sensitive to changes in the DNA conformation, were monitored during the titration of RNase H to the R12-2.

isolated RNase H domain = target: T3, isolated RNase H domain (Human immunodeficiency virus type 1 group M subtype B, UniProt P04585); assay: RNase H activity of the isolated RNase H domain; format: biochemical, HIV
T3 construct: encodes the 15 kDa RNase H domain of HIV-RT; made in house; host or cells: E. coli

[2] = system: HIV-1 SF162 (R5) in U373-MAGI-CCR5 cells; assay: HIV infection of ODN-transfected U373-MAGI-CCR5 cells; format: cell-based
Source text: Viruses and cells. HIV-1 SF162-R5 is a primary isolate that uses CCR5 as a coreceptor (R5), and was obtained from the NIH AIDS Research and Reference Reagent Program. U373-MAGI-CCR5 cells have modifications of the U373 astrocytoma adherent cells that allow use for HIV transfection and infection studies. U373-MAGI-CCR5 cells express β-gal under the control of HIV LTR, which is trans-activated by the HIV Tat protein in relation to the level of virus replication. In addition, these cells express CD4 and the human chemokine receptor CCR5 on its surface, which allow infection by primary HIV strains. U373 cells are propagated in 90% DMEM, 10% fetal bovine serum, 0.2 mg/ml G418, 0.1 mg/ml hydromycin B, and 1.0 μg/ml puromycin. For transfection and infection studies, U373 cells were maintained in 90% DMEM, 10% fetal bovine serum, and 1% penicillin/streptomycin. Thioaptamer RNase H-specific R12-2, control AP-1-specific or scrambled ODNs were transfected into the cells 24 hr prior to infection using Oligofectamine liposomes, according to the manufacturer's instructions (Invitrogen).
Infection of ODN-transfected U373-MAGI-CCR5 cells. Transfected cells and control cells were infected with HIV at m.o.i. of 0.003 (which consistently gives high levels of viral production) for 2 hr. Equal volumes of medium were then added and infection was continued for 48 hr. HIV replication was quantitated in cell lysates by measurement of β-gal activity, determined by luminometry using the β-Glo kit (Promega), according to the manufacturer's guidelines. β-gal activity is expressed as relative light units (RLU). To determine HIV TCID50 in U373-MAGI-CCR5 cells, serial dilutions (10×) of SF162-R5 virus supernatant were innoculated onto a 24-well plate containing 3×10^4 U373 cells for 2 hr, then equal volumes of complete medium were added, and infection was continued for 48 hr. Cells then were lysed and assayed for HIV-directed β-gal expression, and TCID50 (50% tissue culture infective dose) was calculated from quadruplicates. The p24 antigen capture assay (Beckman-Coulter) was used to determine virus production in some studies, measured by p24 antigen concentration in the culture supernatants harvested at day 7 post-infection.

[3] = target: T4, RNase H activity of intact HIV-RT (Human immunodeficiency virus type 1 group M subtype B, UniProt P04585); assay: HIV-RT RNase H activity assay (3H-labeled DNA:RNA hybrid); format: biochemical; details: intact HIV-RT 0.35 μM, R12-2 0.5-2 μM, FIG. 5
T4 construct: The 66 kDa domain, p66, contains an RNase H domain in addition to the DNA polymerase domain; purchased Amersham Bioscience (Piscataway, N.J.)
Method: HIV-RT RNase H activity assay. A DNA:RNA heteroduplex containing radiolabeled RNA was prepared as a substrate for the RNase H. A tritium-labeled RNA molecule, the stem loop 2 of the HIV psi-RNA (25), was made by in-vitro transcription using T7 RNA polymerase with a mixture of ATP, CTP, GTP and ^3H-UTP. Transcribed RNA was purified by centrifugation using Microcon YM-3 filters, to remove NTPs and other short RNA sequences. The purified RNA was annealed with the complementary DNA strand to give the DNA:RNA hybrid where the RNA strand is ^3H-labeled. HIV-RT (0.35 μM) was incubated with R12-2 thioaptamer (0.5-2 μM) in a buffer containing Tris-HCl (50 mM, pH 8.0), MgCl2 (6 mM), DTT (10 mM) and KCl (80 mM) for 30 min at 37° C. To this mixture, labeled DNA-RNA hybrid (40 000 cpm) was added to a final volume of 50 μl and incubated at 37° C. for 20 min. The reaction was quenched by addition of 150 μl of 10% trichloroacetic acid and the mixture was placed on ice for 10 min. The reaction mixture was filtered, washed and the amount of radioactivity in the filtrate was measured using a scintillation counter (Beckman Coulter, CA). The amount of radioactivity in the filtrate is regarded as proportional to RNase H activity.
The ability of the thioaptamer R12-2 to inhibit RNase H activity was tested using a radio-labeled substrate of a DNA:RNA hybrid duplex, as described in Methods. […]

B1: R12-2: 62-mer duplex DNA thioaptamer, monothiophosphate 5′ to dA, selected against RNase H domain of HIV-RT; probably SEQ ID NOS. 1 and 2 (nucleic acid)
chain 1: AATGCTTCCACGAGCCTTTCGGGGTTGGTGTACAGTGGATGGCTGCGAGGCGGTAGTCTATTC
chain 2: GAATAGACTACCGCCTCGCAGCCATCCACTGTACACCAACCCCGAAAGGCTCGTGGAAGCAT
modifications: DNA, backbone and methylation of C not given here; duplex DNA thioaptamer, monothiophosphate 5' to dA
notes: 62-mer duplex DNA thioaptamer, monothiophosphate 5′ to dA, selected against RNase H domain of HIV-RT; 1 and 2
HIV-RT; FIG. 4A
  binding to intact HIV-RT (EMSA): is binding
HIV-RT; intact HIV-RT, EMSA bound band intensity, Hill Plot, FIG. 4B, read-out: dissociation constant Kd
  Kd: 70 nM
HIV-RT; specific binding to HIV-RT, read-out: binding constant
  Kd: 70 nM
[1]
  binding to isolated RNase H domain (NMR, imino proton signal broadening): binding
Isolated RNase H domain
  effect against the isolated RNase H domain: not effective
[2]; Oligofectamine transfection 24 h prior to infection, HIV-SF162 m.o.i. 0.003, compared with untransfected or OF-only cells, FIG. 6
  reduction of infection: greater than 75%
[2]; R12-2 0.05 μg/ml, inocula m.o.i. 0.05 to 0.0005, FIG. 8
  inhibition of the virus at high m.o.i.: significant inhibition
[2]; high m.o.i.
  reduction of virus production: more than 50%
[2]; m.o.i.≦0.005, AZT 10 μM, FIG. 8
  suppression of virus compared with AZT: comparable to that seen with AZT
[2]; transfected 24 hrs prior to infection with HIV SF162, 48 hrs, doses 0.03 to 2.0 μg/ml, FIG. 7, read-out: IC50 (inhibition of HIV infection)
  IC50: < 100 nM
[2]; transfected U373-MAGI-CCR5 cells, FIG. 6
  effect on HIV infection / viral production: inhibits; also recorded: markedly reduces
[3]
  inhibition of RNase H activity: inhibit; also recorded: shows inhibition
